# Experimental data published in IntAct's records for PubMed 20890305.
# B1: Merlin (Homo sapiens), P35240 (parent)
# chain: MAGAIASRMSFSSLKRKQPKTFTVRIVTMDAEMEFNCEMKWKGKDLFDLVCRTLGLRETWFFGLQYTIKDTVAWLKMDKKVLDHDVSKEEPVTFHFLAKFYPENAEEELVQEITQHLFFLQVKKQILDEKIYCPPEASVLLASYAVQAKYGDYDPSVHKRGFLAQEELLPKRVINLYQMTPEMWEERITAWYAEHRGRARDEAEMEYLKIAQDLEMYGVNYFAIRNKKGTELLLGVDALGLHIYDPENRLTPKISFPWNEIRNISYSDKEFTIKPLDKKIDVFKFNSSKLRVNKLILQLCIGNHDLFMRRRKADSLEVQQMKAQAREEKARKQMERQRLAREKQMREEAERTRDELERRLLQMKEEATMANEALMRSEETADLLAEKAQITEEEAKLLAQKAAEAEQEMQRIKATAIRTEEEKRLMEQKVLEAEVLALKMAEESERRAKEADQLKQDLQEAREAERRAKQKLLEIATKPTYPPMNPIPAPLPPDIPSFNLIGDSLSFDFKDTDMKRLSMEIEKEKVEYMEKSKHLQEQLNELKTEIEALKLKERETALDILHNENSDRGGSSKHNTIKKLTLQSAKSRVAFFEEL
# B2: Mitogen-activated protein kinase kinase kinase 11 (Homo sapiens), Q16584 (parent)
# chain: MEPLKSLFLKSPLGSWNGSGSGGGGGGGGGRPEGSPKAAGYANPVWTALFDYEPSGQDELALRKGDRVEVLSRDAAISGDEGWWAGQVGGQVGIFPSNYVSRGGGPPPCEVASFQELRLEEVIGIGGFGKVYRGSWRGELVAVKAARQDPDEDISVTAESVRQEARLFAMLAHPNIIALKAVCLEEPNLCLVMEYAAGGPLSRALAGRRVPPHVLVNWAVQIARGMHYLHCEALVPVIHRDLKSNNILLLQPIESDDMEHKTLKITDFGLAREWHKTTQMSAAGTYAWMAPEVIKASTFSKGSDVWSFGVLLWELLTGEVPYRGIDCLAVAYGVAVNKLTLPIPSTCPEPFAQLMADCWAQDPHRRPDFASILQQLEALEAQVLREMPRDSFHSMQEGWKREIQGLFDELRAKEKELLSREEELTRAAREQRSQAEQLRRREHLLAQWELEVFERELTLLLQQVDRERPHVRRRRGTFKRSKLRARDGGERISMPLDFKHRITVQASPGLDRRRNVFEVGPGDSPTFPRFRAIQLEPAEPGQAWGRQSPRRLEDSSNGERRACWAWGPSSPKPGEAQNGRRRSRMDEATWYLDSDDSSPLGSPSTPPALNGNPPRPSLEPEEPKRPVPAERGSSSGTPKLIQRALLRGTALLASLGLGRDLQPPGGPGRERGESPTTPPTPTPAPCPTEPPPSPLICFSLKTPDSPPTPAPLLLDLGIPVGQRSAKSPRREEEPRGGTVSPPPGTSRSAPGTPGTPRSPPLGLISRPRPSPLRSRIDPWSFVSAGPRPSPLPSPQPAPRRAPWTLFPDSDPFWDSPPANPFQGGPQDCRAQTKDMGAQAPWVPEAGP
# Variants of: B1
# Conditions: with MAP3K11, Q16584
row,effect of a mutation on the interaction,Variant
1,decreasing interaction,S518D

# Variants of: B2
# Conditions: with merl_human NF2, P35240
row,effect of a mutation on the interaction,Variant
1,disrupting interaction,K144R
